Experimental data reported in the supplement of paper PMC5998384.

Experiments:
[1] = tested on: HeLa Kyoto; assay: solubility change mitosis vs G1/S (difference of NP-40 vs SDS log2 ratios) (log2 ratio difference); higher = more soluble in mitosis
[2] = tested on: HeLa Kyoto; assay: thermal stability score vs G1/S (z-score of summed log2 fold changes over temperatures); higher = more thermally stable than in G1/S
[3] = tested on: HeLa Kyoto; assay: melting temperature (median over replicates), in situ; higher = more thermally stable
[4] = tested on: HeLa Kyoto; assay: solubility in G1/S (NP-40 vs SDS abundance) (log2 ratio); higher = more soluble; conditions: cell cycle stage: G1/S
[5] = cell cycle stage: early G1 (4.5 h after nocodazole release)
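For melting temperature (median over replicates), in situ in this document: HeLa Kyoto cells synchronized by double thymidine or nocodazole block, proteins quantified by TMT10plex mass spectrometry, three independent biological replicates.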
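For solubility change mitosis vs G1/S (difference of NP-40 vs SDS log2 ratios) in this document: synchronized HeLa Kyoto cells (double thymidine block for G1/S, nocodazole release for mitosis), protein amounts in NP-40 versus SDS lysates quantified by mass spectrometry, three biological replicates.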
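For solubility in G1/S (NP-40 vs SDS abundance) in this document: HeLa Kyoto cells arrested at G1/S by double thymidine block, proteins quantified by TMT10plex mass spectrometry in mild NP-40 versus SDS extracts, three biological replicates.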
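For thermal stability score vs G1/S (z-score of summed log2 fold changes over temperatures) in this document: synchronized HeLa Kyoto cells, proteins quantified by TMT10plex mass spectrometry, three biological replicates, mitosis taken 0.5 h after nocodazole release, G1/S directly after double thymidine block.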

| Sequence | solubility change mitosis (log2) [1] | thermal stability score [2, 5] | thermal stability score ([2]; cell cycle stage: mitosis) | melting temperature ([3]; cell cycle stage: G1/S) [°C] | melting temperature ([3]; cell cycle stage: mitosis) [°C] | solubility in G1/S (log2) [4] |
| --- | --- | --- | --- | --- | --- | --- |
| MAAVKEPLEFHAKRPWRPEEAVEDPDEEDEDNTSEAENGFSLEEVLRLGGTKQDYLMLATLDENEEVIDGGKKGAIDDLQQGELEAFIQNLNLAKYTKASLVEEDEPAEKENSSKKEVKIPKINNKNTAESQRTSVNKVKNKNRPEPHSDENGSTTPKVKKDKQNIFEFFERQTLLLRPGGKWYDLEYSNEYSLKPQPQDVVSKYKTLAQKLYQHEINLFKSKTNSQKGASSTWMKAIVSSGTLGDRMAAMILLIQDDAVHTLQFVETLVNLVKKKGSKQQCLMALDTFKELLITDLLPDNRKLRIFSQRPFDKLEQLSSGNKDSRDRRLILWYFEHQLKHLVAEFVQVLETLSHDTLVTTKTRALTVAHELLCNKPEEEKALLVQVVNKLGDPQNRIATKASHLLETLLCKHPNMKGVVSGEVERLLFRSNISSKAQYYAICFLNQMALSHEESELANKLITVYFCFFRTCVKKKDVESKMLSALLTGVNRAYPYSQTGDDKVREQIDTLFKVLHIVNFNTSVQALMLLFQVMNSQQTISDRYYTALYRKMLDPGLMTCSKQAMFLNLVYKSLKADIVLRRVKAFVKRLLQVTCQQMPPFICGALYLVSEILKAKPGLRSQLDDHPESDDEENFIDANDDEDMEKFTDADKETEIVKKLETEETVPETDVETKKPEVASWVHFDNLKGGKQLNKYDPFSRNPLFCGAENTSLWELKKLSVHFHPSVALFAKTILQGNYIQYSGDPLQDFTLMRFLDRFVYRNPKPHKGKENTDSVVMQPKRKHFIKDIRHLPVNSKEFLAKEESQIPVDEVFFHRYYKKVAVKEKQKRDADEESIEDVDDEEFEELIDTFEDDNCFSSGKDDMDFAGNVKKRTKGAKDNTLDEDSEGSDDELGNLDDDEVSLGSMDDEEFAEVDEDGGTFMDVLDDESESVPELEVHSKVSTKKSKRKGTDDFDFAGSFQGPRKKKRNLNDSSLFVSAEEFGHLLDENMGSKFDNIGMNAMANKDNASLKQLRWEAERDDWLHNRDAKSIIKKKKHFKKKRIKTTQKTKKQRK [CEBPZ] | 1.14 | 1.59 | 1.76 | 49.8 | 50.1 | -1.9 |
| MAAVQMDPELAKRLFFEGATVVILNMPKGTEFGIDYNSWEVGPKFRGVKMIPPGIHFLHYSSVDKANPKEVGPRMGFFLSLHQRGLTVLRWSTLREEVDLSPAPESEVEAMRANLQELDQFLGPYPYATLKKWISLTNFISEATVEKLQPENRQICAFSDVLPVLSMKHTKDRVGQNLPRCGIECKSYQEGLARLPEMKPRAGTEIRFSELPTQMFPEGATPAEITKHSMDLSYALETVLNKQFPSSPQDVLGELQFAFVCFLLGNVYEAFEHWKRLLNLLCRSEAAMMKHHTLYINLISILYHQLGEIPADFFVDIVSQDNFLTSTLQVFFSSACSIAVDATLRKKAEKFQAHLTKKFRWDFAAEPEDCAPVVVELPEGIEMG [AAR2] | -0.266 | 0.316 | 1.07 | 50.2 | 50.4 | 0.0362 |
| MAAVSGLVRRPLREVSGLLKRRFHWTAPAALQVTVRDAINQGMDEELERDEKVFLLGEEVAQYDGAYKVSRGLWKKYGDKRIIDTPISEMGFAGIAVGAAMAGLRPICEFMTFNFSMQAIDQVINSAAKTYYMSGGLQPVPIVFRGPNGASAGVAAQHSQCFAAWYGHCPGLKVVSPWNSEDAKGLIKSAIRDNNPVVVLENELMYGVPFEFPPEAQSKDFLIPIGKAKIERQGTHITVVSHSRPVGHCLEAAAVLSKEGVECEVINMRTIRPMDMETIEASVMKTNHLVTVEGGWPQFGVGAEICARIMEGPAFNFLDAPAVRVTGADVPMPYAKILEDNSIPQVKDIIFAIKKTLNI [PDHB] | -0.117 | -1.24 | -2.38 | 51.7 | 51.4 | 0.196 |
| MAAWGCVAALGAARGLCWRAARAAAGLQGRPARRCYAVGPAQSPPTFGFLLDIDGVLVRGHRVIPAALKAFRRLVNSQGQLRVPVVFVTNAGNILQHSKAQELSALLGCEVDADQVILSHSPMKLFSEYHEKRMLVSGQGPVMENAQGLGFRNVVTVDELRMAFPLLDMVDLERRLKTTPLPRNDFPRIEGVLLLGEPVRWETSLQLIMDVLLSNGSPGAGLATPPYPHLPVLASNMDLLWMAEAKMPRFGHGTFLLCLETIYQKVTGKELRYEGLMGKPSILTYQYAEDLIRRQAERRGWAAPIRKLYAVGDNPMSDVYGANLFHQYLQKATHDGAPELGAGGTRQQQPSASQSCISILVCTGVYNPRNPQSTEPVLGGGEPPFHGHRDLCFSPGLMEASHVVNDVNEAVQLVFRKEGWALE [CECR5] | -0.159 | 0.291 | 1.28 | 50.8 | 50.2 | 0.262 |
| MAAYKLVLIRHGESAWNLENRFSGWYDADLSPAGHEEAKRGGQALRDAGYEFDICFTSVQKRAIRTLWTVLDAIDQMWLPVVRTWRLNERHYGGLTGLNKAETAAKHGEAQVKIWRRSYDVPPPPMEPDHPFYSNISKDRRYADLTEDQLPSCESLKDTIARALPFWNEEIVPQIKEGKRVLIAAHGNSLRGIVKHLEGLSEEAIMELNLPTGIPIVYELDKNLKPIKPMQFLGDEETVRKAMEAVAAQGKAKK [PGAM1] | -0.15 | -0.0829 | -2.07 | 55.7 | 57.8 | 0.324 |
| MACAAARSPADQDRFICIYPAYLNNKKTIAEGRRIPISKAVENPTATEIQDVCSAVGLNVFLEKNKMYSREWNRDVQYRGRVRVQLKQEDGSLCLVQFPSRKSVMLYAAEMIPKLKTRTQKTGGADQSLQQGEGSKKGKGKKKK [SRP19] | 0.161 | 0.816 | -0.116 | 50.8 | 50.8 | 0.299 |
| MACAAVMIPGLLRCSVGAIRIEAASLRLTLSTLRHLTLTSIMKSKRKTDHMERTASVLRREIVSAAKVCGAASESPSVKSLRLLVADQDFSFKAGQWVDFFIPGVSVVGGFSICSSPRLLEQERVIELAVKYTNHPPALWVHNTCTLDCEVAVRVGGEFFFDPQPADASRNLVLIAGGVGINPLLSILRHAADLLREQANKRNGYEIGTIKLFYSAKNTSELLFKKNILDLVNEFPEKIACSLHVTKQTTQINAELKPYITEGRITEKEIRDHISKETLFYICGPPPMTDFFSKQLENNHVPKEHICFEKWW [OXNAD1] | -0.0113 | -0.605 | -0.938 | 53.9 | 54.7 | -0.0285 |
| MACRGGAGNGHRASATLSRVSPGSLYTCRTRTHNICMVSDFFYPNMGGVESHIYQLSQCLIERGHKVIIVTHAYGNRKGIRYLTSGLKVYYLPLKVMYNQSTATTLFHSLPLLRYIFVRERVTIIHSHSSFSAMAHDALFHAKTMGLQTVFTDHSLFGFADVSSVLTNKLLTVSLCDTNHIICVSYTSKENTVLRAALNPEIVSVIPNAVDPTDFTPDPFRRHDSITIVVVSRLVYRKGIDLLSGIIPELCQKYPDLNFIIGGEGPKRIILEEVRERYQLHDRVRLLGALEHKDVRNVLVQGHIFLNTSLTEAFCMAIVEAASCGLQVVSTRVGGIPEVLPENLIILCEPSVKSLCEGLEKAIFQLKSGTLPAPENIHNIVKTFYTWRNVAERTEKVYDRVSVEAVLPMDKRLDRLISHCGPVTGYIFALLAVFNFLFLIFLRWMTPDSIIDVAIDATGPRGAWTNNYSHSKRGGENNEISETR [PIGA] | -0.133 | -0.383 | -0.682 | 55 | 53.6 | -0.107 |
| MADAASQVLLGSGLTILSQPLMYVKVLIQVGYEPLPPTIGRNIFGRQVCQLPGLFSYAQHIASIDGRRGLFTGLTPRLCSGVLGTVVHGKVLQHYQESDKGEELGPGNVQKEVSSSFDHVIKETTREMIARSAATLITHPFHVITLRSMVQFIGRESKYCGLCDSIITIYREEGILGFFAGLVPRLLGDILSLWLCNSLAYLVNTYALDSGVSTMNEMKSYSQAVTGFFASMLTYPFVLVSNLMAVNNCGLAGGCPPYSPIYTSWIDCWCMLQKEGNMSRGNSLFFRKVPFGKTYCCDLKMLI [MTCH2] | -0.018 | -2.66 | -2.99 | 56.6 | 57 | 0.00924 |
| MADAEVIILPKKHKKKKERKSLPEEDVAEIQHAEEFLIKPESKVAKLDTSQWPLLLKNFDKLNVRTTHYTPLACGSNPLKREIGDYIRTGFINLDKPSNPSSHEVVAWIRRILRVEKTGHSGTLDPKVTGCLIVCIERATRLVKSQQSAGKEYVGIVRLHNAIEGGTQLSRALETLTGALFQRPPLIAAVKRQLRVRTIYESKMIEYDPERRLGIFWVSCEAGTYIRTLCVHLGLLLGVGGQMQELRRVRSGVMSEKDHMVTMHDVLDAQWLYDNHKDESYLRRVVYPLEKLLTSHKRLVMKDSAVNAICYGAKIMLPGVLRYEDGIEVNQEIVVITTKGEAICMAIALMTTAVISTCDHGIVAKIKRVIMERDTYPRKWGLGPKASQKKLMIKQGLLDKHGKPTDSTPATWKQEYVDYSESAKKEVVAEVVKAPQVVAEAAKTAKRKRESESESDETPPAAPQLIKKEKKKSKKDKKAKAGLESGAEPGDGDSDTTKKKKKKKKAKEVELVSE [DKC1] | 0.816 | -3.35 | -5.27 | 55.6 | 53.2 | -1.41 |
| MADAGIRRVVPSDLYPLVLGFLRDNQLSEVANKFAKATGATQQDANASSLLDIYSFWLKSAKVPERKLQANGPVAKKAKKKASSSDSEDSSEEEEEVQGPPAKKAAVPAKRVGLPPGKAAAKASESSSSEESSDDDDEEDQKKQPVQKGVKPQAKAAKAPPKKAKSSDSDSDSSSEDEPPKNQKPKITPVTVKAQTKAPPKPARAAPKIANGKAASSSSSSSSSSSSDDSEEEKAAATPKKTVPKKQVVAKAPVKAATTPTRKSSSSEDSSSDEEEEQKKPMKNKPGPYSSVPPPSAPPPKKSLGTQPPKKAVEKQQPVESSEDSSDESDSSSEEEKKPPTKAVVSKATTKPPPAKKAAESSSDSSDSDSSEDDEAPSKPAGTTKNSSNKPAVTTKSPAVKPAAAPKQPVGGGQKLLTRKADSSSSEEESSSSEEEKTKKMVATTKPKATAKAALSLPAKQAPQGSRDSSSDSDSSSSEEEEEKTSKSAVKKKPQKVAGGAAPSKPASAKKGKAESSNSSSSDDSSEEEEEKLKGKGSPRPQAPKANGTSALTAQNGKAAKNSEEEEEEKKKAAVVVSKSGSLKKRKQNEAAKEAETPQAKKIKLQTPNTFPKRKKGEKRASSPFRRVREEEIEVDSRVADNSFDAKRGAAGDWGERANQVLKFTKGKSFRHEKTKKKRGSYRGGSISVQVNSIKFDSE [NOLC1] | 1.11 | -2.83 | -4.21 | 59.5 | 57 | -0.953 |
| MADDDVLFEDVYELCEVIGKGPFSVVRRCINRETGQQFAVKIVDVAKFTSSPGLSTEDLKREASICHMLKHPHIVELLETYSSDGMLYMVFEFMDGADLCFEIVKRADAGFVYSEAVASHYMRQILEALRYCHDNNIIHRDVKPHCVLLASKENSAPVKLGGFGVAIQLGESGLVAGGRVGTPHFMAPEVVKREPYGKPVDVWGCGVILFILLSGCLPFYGTKERLFEGIIKGKYKMNPRQWSHISESAKDLVRRMLMLDPAERITVYEALNHPWLKERDRYAYKIHLPETVEQLRKFNARRKLKGAVLAAVSSHKFNSFYGDPPEELPDFSEDPTSSGLLAAERAVSQVLDSLEEIHALTDCSEKDLDFLHSVFQDQHLHTLLDLYDKINTKSSPQIRNPPSDAVQRAKEVLEEISCYPENNDAKELKRILTQPHFMALLQTHDVVAHEVYSDEALRVTPPPTSPYLNGDSPESANGDMDMENVTRVRLVQFQKNTDEPMGITLKMNELNHCIVARIMHGGMIHRQGTLHVGDEIREINGISVANQTVEQLQKMLREMRGSITFKIVPSYRTQSSSCERDSPSTSRQSPANGHSSTNNSVSDLPSTTQPKGRQIYVRAQFEYDPAKDDLIPCKEAGIRFRVGDIIQIISKDDHNWWQGKLENSKNGTAGLIPSPELQEWRVACIAMEKTKQEQQASCTWFGKKKKQYKDKYLAKHNAVFDQLDLVTYEEVVKLPAFKRKTLVLLGAHGVGRRHIKNTLITKHPDRFAYPIPHTTRPPKKDEENGKNYYFVSHDQMMQDISNNEYLEYGSHEDAMYGTKLETIRKIHEQGLIAILDVEPQALKVLRTAEFAPFVVFIAAPTITPGLNEDESLQRLQKESDILQRTYAHYFDLTIINNEIDETIRHLEEAVELVCTAPQWVPVSWVY [CASK] | -0.0742 | -0.366 | -0.0785 | 52.1 | 51.9 | -0.129 |
